{"source": "patent US20110207796", "molecular_target": "human alpha-synuclein (wild-type, recombinant)"}
{"protein": "IKBKB (protein) MSWSPSLTTQTCGAWEMKERLGTGGFGNVIRWHNQETGEQIAIKQCRQELSPRNRERWCLEIQIMRRLTHPNVVAARDVPEGMQNLAPNDLPLLAMEYCQGGDLRKYLNQFENCCGLREGAILTLLSDIASALRYLHENRIIHRDLKPENIVLQQGEQRLIHKIIDLGYAKELDQGSLCTSFVGTLQYLAPELLEQQKYTVTVDYWSFGTLAFECITGFRPFLPNWQPVQWHSKVRQKSEVDIVVSEDLNGTVKFSSSLPYPNNLNSVLAERLEKWLQLMLMWHPRQRGTDPTYGPNGCFKALDDILNLKLVHILNMVTGTIHTYPVTEDESLQSLKARIQQDTGIPEEDQELLQEAGLALIPDKPATQCISDGKLNEGHTLDMDLVFLFDNSKITYETQISPRPQPESVSCILQEPKRNLAFFQLRKVWGQVWHSIQTLKEDCNRLQQGQRAAMMNLLRNNSCLSKMKNSMASMSQQLKAKLDFFKTSIQIDLEKYSEQTEFGITSDKLLLAWREMEQAVELCGRENEVKLLVERMMALQTDIVDLQRSPMGRKQGGTLDDLEEQARELYRRLREKPRDQRTEGDSQEMVRLLLQAIQSFEKKVRVIYTQLSKTVVCKQKALELLPKVEEVVSLMNEDEKTVVRLQEKRQKELWNLLKIACSKVRGPVSGSPDSMNASRLSQPGQLMSQPSTASNSLPEPAKKSEELVAEAHNLCTLLENAIQDTVREQDQSFTALDWSWLQTEEEEHSCLEQAS", "values": [{"measurement": "in vitro kinase reaction, phosphorylation of alpha-synuclein", "result": "shown to be incapable of directly phosphorylating alpha-synuclein"}]}
